We go through 58 substances from the supplement of paper PMC10598134.

A short description of this series: collision cross section of unmodified peptide (TIMS, N2, iRT-aligned); higher = larger / more extended gas-phase ion. Summed up: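 Synthetic peptide pools (~100 fmol/µL in 2% acetonitrile/0.1% formic acid, iRT standard spiked 1:40) were separated on a 120-min nanoflow C18 gradient at 60 °C. They were analysed on a timsTOF Pro/HT (dda-PASEF, nitrogen, ~2.4 mbar) and identified with MaxQuant. 1/K0 was calibrated with three reference ions and aligned run-wise to the median iRT peptide deviation. Collision cross section came from the Mason-Schamp equation, averaging 1–3 technical replicates of the most abundant feature per charge state.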

± gives the standard deviation.

In the case of VILENIASHEPR, the collision cross section by setting is: (charge state: 2) 417.03 ± 1.4 Å²; (charge state: 3) 473.55 ± 0.22 Å².
Substance VIVGGSSEYK showed a collision cross section (charge state: 2) of 346.7 ± 0.59 Å².
VLATQPGPGRGR: the collision cross section by setting is: (charge state: 2) 368.04 ± 0.27 Å²; (charge state: 3) 447.7 ± 3 Å².
On the same counts, the results for VLDSGAPIKIPVGPETLGR are 485.73 ± 3 Å² and 510.9 ± 2.1 Å².
Under “charge state: 2”, VLPSITTEILK returned a collision cross section of 373.13 ± 0.14 Å².
Still for that read-out and setting: the value for VLSIGDGIAR was 348.04 ± 0.14 Å².
Turning to VLTANSNPSSPSAAKR, the collision cross section is, setting by setting: (charge state: 2) 431.51 ± 2 Å²; (charge state: 3) 517.98 ± 8.8 Å².
VMVAPISGSVTTGTK: the collision cross section (charge state: 2) came to 396.94 ± 0.14 Å².
Regarding VNALKNLQVK, the collision cross section amounted to 370.39 ± 1.1 Å² (charge state: 2) and 436.61 ± 6 Å² (charge state: 3).
On the same counts, the results for VNIGQGSHPQKVK are 416.89 ± 2.1 Å² and 469.44 ± 3.7 Å².
Consider VNVEAPDVNLEGLGGKLK, for which the collision cross section by setting is: (charge state: 2) 454.51 ± 2.9 Å²; (charge state: 3) 537.97 ± 2.9 Å².
In the case of VPGALAAAKAAK, the collision cross section runs as follows: (charge state: 2) 365.46 ± 0.4 Å²; (charge state: 3) 442.33 ± 1.2 Å².
As to VPGVGLPGVYPGGVLPGAR, the collision cross section by setting is: (charge state: 2) 445.04 ± 0.9 Å²; (charge state: 3) 532.89 ± 0.34 Å².
On the same counts, the results for VPQAQPTKPALK are 384.79 ± 0.67 Å² and 486.38 ± 2.7 Å².
As for VPTTEKPTVTVNFR, the collision cross section was determined as 427.25 ± 2.6 Å² (charge state: 2) and 517.02 ± 4.3 Å² (charge state: 3).
Where the note is “charge state: 2”, VQFAPEK displayed a collision cross section of 317.04 ± 1.1 Å².
Under “charge state: 3”, VQFAPEKPGPQPSAETTR returned a collision cross section of 507.38 ± 9.7 Å².
As to VQGGALEDSQLVAGVAFKK, the collision cross section (charge state: 2) is 499.26 ± 4.6 Å² and the collision cross section (charge state: 3) is 546.92 ± 0.83 Å².
Turning to VRFHNPR, the collision cross section was found to be 337.63 ± 0.7 Å² (charge state: 2) and 406.2 ± 6.3 Å² (charge state: 3).
VRLQTTLR: the collision cross section (charge state: 2) is 347.32 ± 0.41 Å² and the collision cross section (charge state: 3) is 442.81 ± 6.5 Å².
For the substance VSFLSALEEYTK, the collision cross section (charge state: 2) was 392.46 ± 0.78 Å².
Regarding VSPASSVDSNIPSSQGYKK, the collision cross section (charge state: 2) is recorded as 469.69 ± 3.1 Å² and the collision cross section (charge state: 3) turned out to be 542.55 ± 1.8 Å².
With VTGGIFSVTK, the collision cross section (charge state: 2) stood at 335.98 ± 0.58 Å².
Consider VTLEVGKVIQQGR, for which the collision cross section reads like this: (charge state: 2) 428.45 ± 2.5 Å²; (charge state: 3) 496.48 ± 2.3 Å².
The matching figures for VTPHPSPRGSPLPTPK: 427.24 Å² and 550.88 ± 0.55 Å².
The substance VTRYPILGIPQAHR returned a collision cross section (charge state: 3) of 523.45 ± 1.1 Å².
VVDLLAPYAK gave a collision cross section (charge state: 2) of 358.2 ± 7.9 Å².
With VVPGYGHAVLR, the collision cross section is listed as 378.3 ± 0.16 Å² (charge state: 2) and 449.83 ± 0.86 Å² (charge state: 3).
On the same counts, the results for VYIASSSGSTAIKK are 426.35 ± 1.9 Å² and 494.89 ± 3.4 Å².
As for VYPSSLSK, for the setting “charge state: 2”, the collision cross section amounted to 317.31 ± 0.73 Å².
Consider VYSGHQGR, for which the collision cross section worked out at 325.3 ± 0.79 Å² (charge state: 2) and 409 ± 1.1 Å² (charge state: 3).
On to VYSLFLDESR, for which the collision cross section (charge state: 2) is 376.99 ± 0.94 Å².
Same read-out and setting: under VYVGNLGTGAGK stands 357.65 ± 0.15 Å².
For YADLTEDQLPSCESLK, the collision cross section (charge state: 2) was found to be 447.81 ± 1 Å².
Substance YEATSVQQK displayed a collision cross section (charge state: 2) of 342.24 ± 1.4 Å².
As to YEEIVKEVSTYIK, the collision cross section is, setting by setting: (charge state: 2) 443.47 ± 2.8 Å²; (charge state: 3) 492.72 ± 2.3 Å².
YEITEQR showed a collision cross section (charge state: 2) of 326.96 ± 0.72 Å².
As to YEQEHAAIQDKLFQVAK, the collision cross section (charge state: 3) is recorded as 555.79 ± 2.3 Å².
In turn, YGLIFHSTFIGRAAAK gave a collision cross section (charge state: 3) of 526.88 Å².
With YGRGQLNYPLPDFSK, the collision cross section was 433.52 Å² (charge state: 2) and 510.01 ± 10 Å² (charge state: 3).
The matching figures for YHEDIFGLTLR: 388.91 ± 0.75 Å² and 462.33 ± 2 Å².
For the substance YIDNQVVSTKGER, the collision cross section was 414.64 ± 0.66 Å² (charge state: 2) and 500.48 ± 1 Å² (charge state: 3).
The matching figures for YIEIYVQKVNPSR: 435.38 ± 2.7 Å² and 505.68 ± 2.1 Å².
As to YIGTGHADTTK, the collision cross section (charge state: 2) worked out at 357.91 ± 0.48 Å² and the collision cross section (charge state: 3) came to 452.61 ± 1.1 Å².
Substance YILIPASQQPK registered a collision cross section (charge state: 2) of 375.08 ± 0.48 Å².
For the substance YLHDESGLNR, the collision cross section is given as 361.42 ± 0.55 Å² (charge state: 2) and 447.46 ± 1.1 Å² (charge state: 3).
Regarding YRGDYDR, the collision cross section by setting is: (charge state: 2) 327.87 ± 0.56 Å²; (charge state: 3) 412.63 ± 6.2 Å².
The matching figures for YSRGAGLGFSTAPNK: 407.91 ± 1.8 Å² and 476.78 ± 0.4 Å².
For the setting “charge state: 3”, YSSNLGNFNYEQRGAFR had a collision cross section of 529.47 ± 0.012 Å².
Consider YSSSSIPEPFGSRGSPR, for which the collision cross section is 433.42 Å² (charge state: 2) and 521.94 ± 0.21 Å² (charge state: 3).
For the substance YSTSGSSGLTTGK, the collision cross section (charge state: 2) is listed as 373.3 ± 0.54 Å².
For the substance YTAILNQIPSHSSSIR, the collision cross section runs as follows: (charge state: 2) 475.98 ± 0.82 Å²; (charge state: 3) 510.98 ± 3.8 Å².
Substance YTAQVDAEEK yielded a collision cross section (charge state: 2) of 355.03 ± 0.55 Å².
The substance YTCSFCGK displayed a collision cross section (charge state: 2) of 338.71 ± 0.48 Å².
YTQVGPDHNR: the collision cross section (charge state: 2) came to 354.55 ± 0.7 Å² and the collision cross section (charge state: 3) came to 423.12 ± 2 Å².
YTTNNSSEQR gave a collision cross section (charge state: 2) of 353.04 ± 0.15 Å².
The same measure, in the same setting: under YVGESEANIR stands 358.37 ± 0.55 Å².
In the case of YVHADAPTNK, the collision cross section (charge state: 2) is given as 347.85 ± 2.8 Å² and the collision cross section (charge state: 3) was 415.08 ± 2 Å².
